The record followed here is patent US20220288124A1 (AUGUSTA UNIVERSITY RESEARCH INSTITUTE, published 2022).

Several values for one entry are separate records, joined by “and”; a condition that tells them apart may be missing. Identical values can stand only once.

Broadly, the koff is the first-order rate constant of dissociation. The term Kd denotes the equilibrium constant for the complex coming apart. Usually EC50 stands for the concentration at which the effect is half-maximal. The term kon denotes a measure of how fast the partners come together. The EC50 (read off the curve) is the midpoint of the concentration-response curve.

For test [1], the target named is T1, N1 peptide (AA25-39 of hGPC3) (human, UniProt P51654 25-39).
T1 construct: range 25-39
T1 peptide (looked up): QPPPPPPDATCHQVR
The test is described as follows: ELISA on plate-coated synthetic peptide, anti-human IgG-HRP. The protocol: (§1) 96-well Flat-Bottom Immuno Plates (from Thermo Fisher) were coated with 4 ug of PBS-diluted peptides, overnight, at […]. 1 ug of rhGPC3 (from Creative Biomart) was used as positive control. The next day, peptides were discarded and plates were blocked with 100 μl of 5% non-fat milk in PBS. Then, the plates were washed with 300 μl/well of PBST (0.1% Tween20). Next, incubation with 100 uL/well of different antibody dilutions. This was followed by four washes with PBST. Then, incubation with 100 uL/well of anti-human IgG-HRP (From KPL) (1:2000 dilution). This was followed by four washes with PBST. Next, 100 uL/well of TMB (from Biolengend), incubation for 30 minutes. Then, 100 uL/well of 2N H2SO4. Lastly, OD450 nm was detected in an xMark™ Microplate Spectrophotometer (from BIO-RAD). If not indicated otherwise, incubations were performed for 1 hour at RT, and antibodies were diluted in 2% non-fat milk in PBS.
(In general: ELISA stands for enzyme-linked immunosorbent assay.)

Test [2] addresses T2, soluble hGPC3 protein (recombinant human glypican 3) (human, UniProt P51654 25-560, limits assumed).
T2 construct: The construct used in ELISA and BLI and as FITC-labelled protein is not further defined; also called rhGPC3; FITC-labeled hGPC3
The test is described as follows: BLI, 1:1 global fit; kdis(1/s); kdis Error 3.37E-06, R^2 0.9939. The protocol:
(§2) Kinetics experiments were performed using the ForteBio Octet Red96 platform. All data were collected at 25° C. with orbital shaking at 1,000 rpm in 200 μL in 96-well black flat bottom plates (Greiner Bio-one). Anti-hIgG Fc Capture Sensor (ForteBio) were equilibrated for 10 min in 1×kinetics buffer prior to loading with 5 μg/mL of mAbs for 2 min. After the loading step, a 30 s baseline in 1×kinetics buffer was established before association with a range of concentrations of GPC3 for 2 min. Following mAbs association with GP, there was a 10-minute of dissociation step in kinetic buffer. For all experiments, two reference sensors without association to mAbs were used to account for nonspecific binding of analyte to the sensor and the system drift. All data were fit globally to a 1:1 Langmuir binding model using data analysis software 9.0 (ForteBio).
(In general: Biolayer interferometry detects binding as a change in optical thickness at a sensor tip.)

For test [3], the target named is T2, soluble hGPC3 protein (recombinant …). Kind of test: BLI (Octet Red96), mAb captured on anti-hIgG Fc sensor, GPC3 as analyte, 1:1 fit, 25 C; BLI, soluble hGPC3. The protocol: as §2
(§3) The 3 mAbs belong to different Ig classes, i.e., 6G11 and 12D7 are IgM, whereas 8F8 is IgG2a. To fairly compare their affinity, mAbs were generated recombinant using their VL and VH and a same human IgG constant region. Fig.3A illustrates the structure of the recombinant mAbs. The mAbs were expressed and purified from 293 cells (FIG 3B). […] The mAb's affinity was also studied by BioLayer Interferometry (BLI). […] The affinity data obtained by ELISA assay and BLI are in the same order, i.e., 6G11>12D7>8F8. Because the purpose of developing the mAbs is to bind hGPC3 molecules on the tumor cell surface, we determined the affinity of the mAbs for hGPC3 on HepG2 cells.

Test [4] has the same target. The test is described as follows: ELISA of recombinant mAb on hGPC3, OD450.
Test [5] shares this target. Kind of test: BLI, 1:1 global fit; KD Error 8.68E-11, R^2 0.9939. The protocol: as §2
For test [6] the target is unchanged. Kind of test: BLI, 1:1 global fit; kon Error 4.12E+02, R^2 0.9939. The protocol: as §2
In test [7] the target is T3, hGPC3 on the surface of HCC tumor cells (HepG2; hGPC3low Huh7) (human, UniProt P51654 25-554).
T3 construct: whole, on cells; GPI-anchored; also called hGPC3 on HepG2 cells; hGPC3 molecules on the tumor cell surface
Kind of test: immunofluorescent staining of HepG2 cells at different mAb concentrations, percent positive cells; hGPC3 on HepG2 cells.
Description: FIG. 3A is an illustration showing the schematic structure of the recombinant mAbs. SP: signal peptide of human IgG; VL: variable region of light chain; VH: variable region of heavy chain; CL: constant region of human IgG light chain; CH: constant region of human IgG heavy chain. FIG. 3B is gel showing PAGE analysis of purified recombinant mAbs under reduced and non-reduced condition. mAbs were purified from the 293 cells after co-transfection of the L and H chain expressing plasmids. Gel was stained with SimplyBlue SafeStain, FIG. 3C is a graph showing the EC50 of recombinant mAbs by ELISA. FIG. 3D is a panel of graphs showing the Kd value of each mAbs was measured by BLI. Each experiment was repeated at least 3 times and similar data were obtained. FIG. 3E is a graph showing the Kd value of mAbs 6G11, 8F8, and 12D7 for staining HepG2 tumor cells. Immunofluorescent staining was conducted for HepG2 tumor cells using the mAbs at different concentration. Based on the percent of positive cells and the mAb concentration, the Kd value was calculated by Prism software.
as §3

The target in test [8] is T4, hGPC3-N fragment (AA1-358) (human, UniProt P51654 25-358).
T4 construct: range 1-358; Detected by intracellular staining or western blot of transfected 293/293T cells
The test is described as follows: flow cytometry, intracellular staining of 293 cells transfected with hGPC3-N; gate set on untransfected cells. From the text:
FIG. 1A is a table of 22 hGPC3-specific mAbs identified by ELISA assay. Their Ig class, staining of HepG2 cells, and binding of the hGPC3 N- or C-fragment were provided. […] FIG. 1B is a panel of micrographs showing representative immunofluorescent stainings of HepG2 tumor cells by 5 mAbs. FIG. 1C is a diagram of plasmids expressing the N- and C-fragments of hGPC3. FIG. 1D is a panel of graphs showing 293 cells transfected with either hGPC3-N or hGPC3-C plasmid intracellularly stained with indicated mAbs. The gate was set by the parental 293T cells without transfection.
A general note: In flow cytometry, cells or beads pass a laser one at a time.

Test [9] addresses T2, soluble hGPC3 protein (recombinant …). The test is described as follows: BLI, 1:1 global fit; kon Error 8.02E+01, R^2 0.9993. The protocol: as §2
Test [10] shares this target. The test is described as follows: BLI, 1:1 global fit; kdis(1/s); kdis Error 1.83E-06, R^2 0.9993. The protocol:
as §2

Test [11] shares this target. Kind of test: BLI, 1:1 global fit; KD Error 2.90E-10, R^2 0.9993. The protocol: as §2
A further test has as its target T5, N4 (88-126) (human, UniProt P51654).
T5 construct: overlapping synthetic peptide
T5 peptide (looked up): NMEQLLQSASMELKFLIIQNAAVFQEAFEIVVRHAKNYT
Kind of test: ELISA on plate-coated synthetic peptide, anti-human IgG-HRP. The protocol:
as §1

The next test addresses T6, N3 (59-97) (human, UniProt P51654).
T6 construct: overlapping synthetic peptide
T6 peptide (looked up): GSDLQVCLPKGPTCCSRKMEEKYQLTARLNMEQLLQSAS
Described as above. The protocol:
as §1

The target in a further test is T7, N2 (30-68) (human, UniProt P51654).
T7 construct: overlapping synthetic peptide
T7 peptide (looked up): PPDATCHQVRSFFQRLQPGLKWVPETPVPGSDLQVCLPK
The description is as above. The protocol:
as §1

The target in test [12] is T2, soluble hGPC3 protein (recombinant …). The test is described as follows: BLI, 1:1 global fit; kon Error 2.81E+02, R^2 0.9958. The protocol: as §2
Test [13] has the same target. Kind of test: BLI, 1:1 global fit; KD Error 9.61E-11, R^2 0.9958. The protocol: as §2
For test [14] the target is unchanged. Kind of test: BLI, 1:1 global fit; kdis(1/s); kdis Error 2.89E-06, R^2 0.9958. The protocol: as §2

T4 sequence (P51654 25-358 limits assumed, form in doubt): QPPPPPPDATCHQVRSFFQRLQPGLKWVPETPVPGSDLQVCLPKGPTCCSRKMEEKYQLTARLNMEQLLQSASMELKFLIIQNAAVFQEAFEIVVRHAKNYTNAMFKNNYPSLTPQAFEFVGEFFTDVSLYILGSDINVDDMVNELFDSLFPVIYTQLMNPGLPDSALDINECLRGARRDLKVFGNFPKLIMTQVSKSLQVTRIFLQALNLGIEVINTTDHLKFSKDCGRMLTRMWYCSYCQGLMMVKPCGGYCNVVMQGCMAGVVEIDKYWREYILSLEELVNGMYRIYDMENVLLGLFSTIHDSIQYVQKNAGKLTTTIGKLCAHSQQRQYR
T3 sequence (P51654 25-554 limits assumed): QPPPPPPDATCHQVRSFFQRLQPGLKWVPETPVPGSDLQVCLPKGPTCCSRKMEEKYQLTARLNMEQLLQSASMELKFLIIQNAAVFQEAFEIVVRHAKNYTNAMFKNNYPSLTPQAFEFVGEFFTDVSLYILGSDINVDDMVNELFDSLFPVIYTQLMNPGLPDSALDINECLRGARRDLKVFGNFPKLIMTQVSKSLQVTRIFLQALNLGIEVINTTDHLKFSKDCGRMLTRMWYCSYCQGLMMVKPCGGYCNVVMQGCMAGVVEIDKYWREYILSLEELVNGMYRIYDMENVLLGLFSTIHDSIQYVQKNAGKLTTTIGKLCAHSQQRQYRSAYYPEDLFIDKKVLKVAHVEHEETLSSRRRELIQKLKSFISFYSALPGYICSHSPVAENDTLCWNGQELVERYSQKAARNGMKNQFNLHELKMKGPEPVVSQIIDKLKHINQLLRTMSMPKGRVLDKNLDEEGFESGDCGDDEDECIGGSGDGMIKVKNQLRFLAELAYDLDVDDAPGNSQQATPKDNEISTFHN
T2 sequence (P51654 25-560 limits assumed): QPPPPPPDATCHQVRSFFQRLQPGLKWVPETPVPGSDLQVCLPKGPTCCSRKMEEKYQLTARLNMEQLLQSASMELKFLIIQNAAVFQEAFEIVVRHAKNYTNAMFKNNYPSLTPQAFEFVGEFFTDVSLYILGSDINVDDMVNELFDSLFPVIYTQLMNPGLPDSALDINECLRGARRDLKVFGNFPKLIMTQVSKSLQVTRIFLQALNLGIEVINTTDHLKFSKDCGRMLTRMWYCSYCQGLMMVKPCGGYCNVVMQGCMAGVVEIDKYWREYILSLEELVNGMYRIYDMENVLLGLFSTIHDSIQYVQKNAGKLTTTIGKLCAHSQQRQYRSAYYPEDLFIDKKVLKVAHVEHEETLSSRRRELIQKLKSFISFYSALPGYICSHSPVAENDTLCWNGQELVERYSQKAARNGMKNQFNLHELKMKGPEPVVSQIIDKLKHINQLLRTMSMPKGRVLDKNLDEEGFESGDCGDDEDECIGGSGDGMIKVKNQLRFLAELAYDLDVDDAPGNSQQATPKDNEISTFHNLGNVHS

B1: recombinant mAb 6G11 (6G11 VL and VH fused to human IgG constant regions) (antibody, V domains shown)
VH: QVQLQQPGSELVRPGASVKLSCKASGYTFTSCWMHWVKQRPGQGLEWIGNIYPGYGNTNYDEKFKNKATLTVDTSSSTAYMQLSGLTSEDSAVYYCTRGSYLYAMDYWGQGTSVTVSS
VL: DIQMNQSPSSLSASLGDTITITCHASQNINVWLSWYQQKPGNIPKLLIYKASNLHTGVPSRFSGSGSGTGFTLTISSLQPEDIATYYCQQGQSYPWTFGGGTKLEIKR
notes: Expressed in 293 cells; only the claims assign heavy and light; also called 6G11 mAb
Consider B1, for which the binding result in test [1] is recorded as “binds”. The dissociation rate constant (koff) in test [2] turned out to be 0.000389 s⁻¹. The Kd was 7.4 nM in test [3] and 7.43 nM in test [5]. Further, the EC50 in test [4] was 0.0072 µg/mL and 0.047 nM; in test [7] it was 0.095 nM. Besides, in test [6], the on-rate constant (kon) worked out at 52400 M⁻¹ s⁻¹.

B2: mAb 6G11 (mouse hybridoma antibody) (antibody, V domains shown)
VH: B1 VH
VL: B1 VL
notes: Mouse IgM with kappa light chain, from hybridoma; claim 21 names 5 and 7 as the amino acid entries
Regarding B2, the “% of cells in the positive gate” value in test [8] came to 44.3%.

B3: recombinant mAb 8F8 (8F8 VL and VH fused to human IgG constant regions) (antibody, V domains shown)
VH: EVKLVESGGDLVKPGGSLKLSCAASGFTFSRYGLSWVRQTPEKRLEWVATISGSGSYTYYPDSVKGRFTISRDNAKNNLYLQMSSLRSEDTALYYCVRRGTYGYDNWGQGTTLTVSS
VL: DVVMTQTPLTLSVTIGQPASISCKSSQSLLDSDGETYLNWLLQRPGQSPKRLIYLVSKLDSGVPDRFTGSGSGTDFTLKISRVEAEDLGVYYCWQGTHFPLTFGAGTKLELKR
notes: Expressed in 293 cells; only the claims assign heavy and light; also called 8F8 mAb
Regarding B3, the kon in test [9] stood at 8970 M⁻¹ s⁻¹. In addition, the koff in test [10] is 0.000206 s⁻¹. Also, the Kd in test [3] is 23 nM; in test [11], 22.9 nM. For the same molecule, the EC50 in [4] is 0.294 µg/mL and 1.93 nM; in [7], 12 nM.

B4: mAb 8F8 (mouse hybridoma antibody) (antibody, V domains shown)
VH: B3 VH
VL: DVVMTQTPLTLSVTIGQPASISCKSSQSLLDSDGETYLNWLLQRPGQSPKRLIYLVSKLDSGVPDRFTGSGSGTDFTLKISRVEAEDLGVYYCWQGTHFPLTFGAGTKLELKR
notes: Mouse IgG2a with kappa light chain, from hybridoma
On to B4, for which the “% of cells in the positive gate” value in test [8] was 0.31%.

B5: recombinant mAb 12D7 (12D7 VL and VH fused to human IgG constant regions) (antibody, V domains shown)
VH: QVQLQQPGSELVRPGASVKLSCKASGYTFTSYWMHWVKQRLGQGLEWIGNIYPGSGSTNYDEKFKSKGTLTVDTSSSTAYMHLSSLTSEDSAVYYCTRGDYDWVFAYWGQGTLVTVSA
VL: DIVMTQSQKFMSTSVGDRVSVTCKASQNVGTNVAWYQQKPGQSPKALIYSASYRYSGVPDRFTGSGSGTDFTLTISNVQSEDLAEYFCQQYNSYPLTFGAGTKLELKR
notes: Expressed in 293 cells; only the claims assign heavy and light; also called 12D7 mAb
Take B5: the binding result (in test [1]; with N4 (88-126); with N3 (59-97); with N2 (30-68)) was “no binding (tested: 10 µg/ml)” each time. The dissociation constant Kd in [3] turned out to be 9.8 nM; in test [13], 9.76 nM. In addition, the concentration giving a half-maximal response (EC50) is 0.125 µg/mL and 0.82 nM in test [4]; 0.1 nM in [7]. Also, in test [4], the “EC50 (read off the curve)” value is approximately 0.1 µg/mL. Also, the on-rate constant (kon) in test [12] came out at 41500 M⁻¹ s⁻¹. In test [14], the koff was determined as 0.000405 s⁻¹.

B6: mAb 12D7 (mouse hybridoma antibody) (antibody, V domains shown)
VH: B5 VH
VL: B5 VL
notes: Mouse IgM with kappa light chain, from hybridoma
As for B6, in test [8], the “% of cells in the positive gate” value was 43.2%.
